Experimental data reported in the Human Domainome abundance scans (Beltran et al. 2025).
± gives the uncertainty stated by the source.

Assay: abundance fitness (aPCA) (normalised: wild type 0, dead -1); higher = more abundant; growth selection in yeast, the domain comes from the species named
Conditions: Homo sapiens

Row | Substance | abundance fitness
1 | Lipoamide acyltransferase component of branched-chain alpha-keto acid dehydrogenase complex, mitochondrial Q212F, P11182 | -0.392 ± 0.11
2 | Lipoamide acyltransferase component of branched-chain alpha-keto acid dehydrogenase complex, mitochondrial Q212G, P11182 | 0.023 ± 0.034
3 | Lipoamide acyltransferase component of branched-chain alpha-keto acid dehydrogenase complex, mitochondrial Q212H, P11182 | 0.011 ± 0.065
4 | Lipoamide acyltransferase component of branched-chain alpha-keto acid dehydrogenase complex, mitochondrial Q212I, P11182 | -0.255 ± 0.089
5 | Lipoamide acyltransferase component of branched-chain alpha-keto acid dehydrogenase complex, mitochondrial Q212K, P11182 | 0.007 ± 0.061
6 | Lipoamide acyltransferase component of branched-chain alpha-keto acid dehydrogenase complex, mitochondrial Q212L, P11182 | -0.189 ± 0.043
7 | Lipoamide acyltransferase component of branched-chain alpha-keto acid dehydrogenase complex, mitochondrial Q212M, P11182 | -0.108 ± 0.049
8 | Lipoamide acyltransferase component of branched-chain alpha-keto acid dehydrogenase complex, mitochondrial Q212N, P11182 | 0.124 ± 0.14
9 | Lipoamide acyltransferase component of branched-chain alpha-keto acid dehydrogenase complex, mitochondrial Q212P, P11182 | -0.017 ± 0.036
10 | Lipoamide acyltransferase component of branched-chain alpha-keto acid dehydrogenase complex, mitochondrial Q212R, P11182 | 0.085 ± 0.042
11 | Lipoamide acyltransferase component of branched-chain alpha-keto acid dehydrogenase complex, mitochondrial Q212S, P11182 | 0.004 ± 0.04
12 | Lipoamide acyltransferase component of branched-chain alpha-keto acid dehydrogenase complex, mitochondrial Q212T, P11182 | 0.017 ± 0.06
13 | Lipoamide acyltransferase component of branched-chain alpha-keto acid dehydrogenase complex, mitochondrial Q212V, P11182 | -0.075 ± 0.038
14 | Lipoamide acyltransferase component of branched-chain alpha-keto acid dehydrogenase complex, mitochondrial Q212W, P11182 | -0.218 ± 0.046
15 | Lipoamide acyltransferase component of branched-chain alpha-keto acid dehydrogenase complex, mitochondrial Q212Y, P11182 | 0.108 ± 0.44
16 | Lipoamide acyltransferase component of branched-chain alpha-keto acid dehydrogenase complex, mitochondrial R178A, P11182 | -0.028 ± 0.043
17 | Lipoamide acyltransferase component of branched-chain alpha-keto acid dehydrogenase complex, mitochondrial R178C, P11182 | -0.173 ± 0.083
18 | Lipoamide acyltransferase component of branched-chain alpha-keto acid dehydrogenase complex, mitochondrial R178D, P11182 | -0.626 ± 0.076
19 | Lipoamide acyltransferase component of branched-chain alpha-keto acid dehydrogenase complex, mitochondrial R178E, P11182 | -0.022 ± 0.053
20 | Lipoamide acyltransferase component of branched-chain alpha-keto acid dehydrogenase complex, mitochondrial R178F, P11182 | -0.261 ± 0.1
21 | Lipoamide acyltransferase component of branched-chain alpha-keto acid dehydrogenase complex, mitochondrial R178G, P11182 | -0.361 ± 0.046
22 | Lipoamide acyltransferase component of branched-chain alpha-keto acid dehydrogenase complex, mitochondrial R178H, P11182 | -0.1 ± 0.072
23 | Lipoamide acyltransferase component of branched-chain alpha-keto acid dehydrogenase complex, mitochondrial R178I, P11182 | 0.002 ± 0.059
24 | Lipoamide acyltransferase component of branched-chain alpha-keto acid dehydrogenase complex, mitochondrial R178K, P11182 | 0.051 ± 0.058

Row | Substance | abundance fitness
25 | Lipoamide acyltransferase component of branched-chain alpha-keto acid dehydrogenase complex, mitochondrial R178L, P11182 | -0.165 ± 0.038
26 | Lipoamide acyltransferase component of branched-chain alpha-keto acid dehydrogenase complex, mitochondrial R178M, P11182 | -0.035 ± 0.048
27 | Lipoamide acyltransferase component of branched-chain alpha-keto acid dehydrogenase complex, mitochondrial R178N, P11182 | -0.241 ± 0.071
28 | Lipoamide acyltransferase component of branched-chain alpha-keto acid dehydrogenase complex, mitochondrial R178P, P11182 | -1.38 ± 0.33
29 | Lipoamide acyltransferase component of branched-chain alpha-keto acid dehydrogenase complex, mitochondrial R178Q, P11182 | -0.024 ± 0.064
30 | Lipoamide acyltransferase component of branched-chain alpha-keto acid dehydrogenase complex, mitochondrial R178S, P11182 | -0.081 ± 0.057
31 | Lipoamide acyltransferase component of branched-chain alpha-keto acid dehydrogenase complex, mitochondrial R178T, P11182 | -0.114 ± 0.067
32 | Lipoamide acyltransferase component of branched-chain alpha-keto acid dehydrogenase complex, mitochondrial R178W, P11182 | -0.27 ± 0.053
33 | Lipoamide acyltransferase component of branched-chain alpha-keto acid dehydrogenase complex, mitochondrial R179A, P11182 | -0.048 ± 0.042
34 | Lipoamide acyltransferase component of branched-chain alpha-keto acid dehydrogenase complex, mitochondrial R179D, P11182 | -0.228 ± 0.11
35 | Lipoamide acyltransferase component of branched-chain alpha-keto acid dehydrogenase complex, mitochondrial R179E, P11182 | 0.011 ± 0.068
36 | Lipoamide acyltransferase component of branched-chain alpha-keto acid dehydrogenase complex, mitochondrial R179G, P11182 | -0.257 ± 0.038
37 | Lipoamide acyltransferase component of branched-chain alpha-keto acid dehydrogenase complex, mitochondrial R179H, P11182 | -0.368 ± 0.14
38 | Lipoamide acyltransferase component of branched-chain alpha-keto acid dehydrogenase complex, mitochondrial R179I, P11182 | -0.248 ± 0.059
39 | Lipoamide acyltransferase component of branched-chain alpha-keto acid dehydrogenase complex, mitochondrial R179K, P11182 | -0.021 ± 0.052
40 | Lipoamide acyltransferase component of branched-chain alpha-keto acid dehydrogenase complex, mitochondrial R179L, P11182 | -0.083 ± 0.042
41 | Lipoamide acyltransferase component of branched-chain alpha-keto acid dehydrogenase complex, mitochondrial R179M, P11182 | -0.087 ± 0.055
42 | Lipoamide acyltransferase component of branched-chain alpha-keto acid dehydrogenase complex, mitochondrial R179N, P11182 | -0.156 ± 0.079
43 | Lipoamide acyltransferase component of branched-chain alpha-keto acid dehydrogenase complex, mitochondrial R179P, P11182 | -1.11 ± 0.085
44 | Lipoamide acyltransferase component of branched-chain alpha-keto acid dehydrogenase complex, mitochondrial R179Q, P11182 | 0 ± 0.051
45 | Lipoamide acyltransferase component of branched-chain alpha-keto acid dehydrogenase complex, mitochondrial R179S, P11182 | -0.212 ± 0.057
46 | Lipoamide acyltransferase component of branched-chain alpha-keto acid dehydrogenase complex, mitochondrial R179T, P11182 | -0.304 ± 0.091
47 | Lipoamide acyltransferase component of branched-chain alpha-keto acid dehydrogenase complex, mitochondrial R179W, P11182 | -0.28 ± 0.049
48 | Lipoamide acyltransferase component of branched-chain alpha-keto acid dehydrogenase complex, mitochondrial R199A, P11182 | 0.016 ± 0.045
